Measured values published in publication PMC9482650, “Quantitative fragmentomics allow affinity mapping of interactomes” (Nature Communications, 2022).

T1: LNX2_4, Q8N448
T1 sequence (Q8N448 595-690, limits assumed, looked up): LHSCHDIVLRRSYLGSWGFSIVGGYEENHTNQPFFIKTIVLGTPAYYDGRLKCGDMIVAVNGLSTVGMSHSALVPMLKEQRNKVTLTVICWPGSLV

T2: MLLT4, P55196
T2 sequence (P55196 1002-1103, limits assumed, looked up): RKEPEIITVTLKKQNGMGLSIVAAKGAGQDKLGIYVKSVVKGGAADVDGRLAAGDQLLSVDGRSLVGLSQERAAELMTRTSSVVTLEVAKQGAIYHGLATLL

T3: MPDZ_13, O75970
T3 sequence (O75970 1982-2070, limits assumed, looked up): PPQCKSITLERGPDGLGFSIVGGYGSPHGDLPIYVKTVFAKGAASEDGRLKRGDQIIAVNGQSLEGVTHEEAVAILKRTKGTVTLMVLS

T4: MPDZ_3, O75970
T4 sequence (O75970 372-473, limits assumed, looked up): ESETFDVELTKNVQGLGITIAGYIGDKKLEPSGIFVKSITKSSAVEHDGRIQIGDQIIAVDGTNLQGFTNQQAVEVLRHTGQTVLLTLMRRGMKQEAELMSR

T5: MPDZ_6, O75970
T5 sequence (O75970 1003-1099, limits assumed, looked up): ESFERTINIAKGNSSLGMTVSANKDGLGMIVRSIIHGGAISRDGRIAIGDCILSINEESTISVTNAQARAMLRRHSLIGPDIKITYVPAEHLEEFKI

T6: MPP5, Q8N3R9
T6 sequence (Q8N3R9 251-346, limits assumed, looked up): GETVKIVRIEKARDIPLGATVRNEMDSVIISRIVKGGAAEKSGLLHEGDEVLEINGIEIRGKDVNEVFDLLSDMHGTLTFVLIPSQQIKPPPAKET

T7: PARD6B, Q9BYG5
T7 sequence (Q9BYG5 152-260, limits assumed, looked up): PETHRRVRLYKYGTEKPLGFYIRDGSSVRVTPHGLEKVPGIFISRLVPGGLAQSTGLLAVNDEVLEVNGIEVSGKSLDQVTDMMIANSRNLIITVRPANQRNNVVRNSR

T8: PARD6G, Q9BYG4
T8 sequence (Q9BYG4 153-261, limits assumed, looked up): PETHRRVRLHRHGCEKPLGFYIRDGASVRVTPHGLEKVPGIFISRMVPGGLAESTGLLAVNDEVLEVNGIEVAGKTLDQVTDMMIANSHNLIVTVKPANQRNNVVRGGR

T9: PDZD7_1, Q9H5P4
T9 sequence (Q9H5P4 81-178, limits assumed, looked up): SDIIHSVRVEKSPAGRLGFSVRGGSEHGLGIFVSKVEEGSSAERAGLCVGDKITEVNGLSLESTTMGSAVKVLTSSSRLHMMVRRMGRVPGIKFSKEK

T10: PDZD7_2, Q9H5P4
T10 sequence (Q9H5P4 205-303, limits assumed, looked up): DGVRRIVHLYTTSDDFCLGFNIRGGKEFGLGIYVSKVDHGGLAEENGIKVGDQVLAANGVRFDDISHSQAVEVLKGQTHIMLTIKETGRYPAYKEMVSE

T11: SHANK2, Q9UPX8
T11 sequence (Q9UPX8 621-730, limits assumed, looked up): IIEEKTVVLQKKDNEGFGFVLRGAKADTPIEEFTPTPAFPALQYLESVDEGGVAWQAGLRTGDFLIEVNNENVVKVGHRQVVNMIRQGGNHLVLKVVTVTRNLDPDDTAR

T12: TJP3_1, O95049
T12 sequence (O95049 6-103, limits assumed, looked up): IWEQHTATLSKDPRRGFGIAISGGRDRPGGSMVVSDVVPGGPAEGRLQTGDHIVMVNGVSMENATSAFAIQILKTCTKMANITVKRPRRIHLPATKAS


What was measured:
Experiment in all cases: holdup assay
Design in all cases: key: below the threshold = too weak to quantify, mostly under pKd 3.1 to 4
Settings in all cases: plain residues with an end cap or a label only (N-terminal biotin on a linker: ttds)
[1] = molecular target: CARD14, Q9BXL6
[2] = molecular target: DVL2, O14641
[3] = molecular target: LIMK1, P53667
[4] = molecular target: T1, LNX2_4, Q8N448
[5] = molecular target: MAGI3_3, Q5TCQ9
[6] = molecular target: MAGI3_4, Q5TCQ9
[7] = molecular target: T2, MLLT4, P55196
[8] = molecular target: T3, MPDZ_13, O75970
[9] = molecular target: T4, MPDZ_3, O75970
[10] = molecular target: T5, MPDZ_6, O75970
[11] = molecular target: T6, MPP5, Q8N3R9
[12] = molecular target: NHERF4_3, Q86UT5
[13] = molecular target: PARD3B_2, Q8TEW8
[14] = molecular target: T7, PARD6B, Q9BYG5
[15] = molecular target: T8, PARD6G, Q9BYG4
[16] = molecular target: T9, PDZD7_1, Q9H5P4
[17] = molecular target: T10, PDZD7_2, Q9H5P4
[18] = molecular target: PREX1_1, Q8TCU6
[19] = molecular target: Q13368
[20] = molecular target: Q96JY6
[21] = molecular target: Q9NPB6
[22] = molecular target: Q9UMS6
[23] = molecular target: RIMS1, Q86UR5
[24] = molecular target: T11, SHANK2, Q9UPX8
[25] = molecular target: TJP1_1, Q07157
[26] = molecular target: T12, TJP3_1, O95049

Sequence of RIMS1, Q86UR5 (Q86UR5 584-692): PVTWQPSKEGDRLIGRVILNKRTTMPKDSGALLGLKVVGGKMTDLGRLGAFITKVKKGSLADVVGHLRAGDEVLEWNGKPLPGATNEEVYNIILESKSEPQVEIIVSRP
Sequence of PREX1_1, Q8TCU6 (Q8TCU6 608-718): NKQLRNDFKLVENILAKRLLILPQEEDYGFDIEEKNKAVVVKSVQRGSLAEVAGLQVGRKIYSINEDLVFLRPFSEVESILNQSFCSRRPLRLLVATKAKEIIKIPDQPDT
Sequence of NHERF4_3, Q86UT5 (Q86UT5 325-412): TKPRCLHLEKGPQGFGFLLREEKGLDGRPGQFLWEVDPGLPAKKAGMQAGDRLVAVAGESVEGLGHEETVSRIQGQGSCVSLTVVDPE
Sequence of MAGI3_4, Q5TCQ9 (Q5TCQ9 716-815): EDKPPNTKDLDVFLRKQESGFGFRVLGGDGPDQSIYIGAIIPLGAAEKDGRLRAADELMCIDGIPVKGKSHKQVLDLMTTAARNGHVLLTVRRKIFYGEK
Sequence of DVL2, O14641 (O14641 260-359): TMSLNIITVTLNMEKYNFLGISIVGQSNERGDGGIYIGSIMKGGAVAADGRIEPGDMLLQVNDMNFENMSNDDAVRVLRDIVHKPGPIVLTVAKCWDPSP
Sequence of MAGI3_3, Q5TCQ9 (Q5TCQ9 572-655): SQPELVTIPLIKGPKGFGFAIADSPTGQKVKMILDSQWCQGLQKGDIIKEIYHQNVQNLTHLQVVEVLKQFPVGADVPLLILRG
Sequence of CARD14, Q9BXL6 (Q9BXL6 558-663): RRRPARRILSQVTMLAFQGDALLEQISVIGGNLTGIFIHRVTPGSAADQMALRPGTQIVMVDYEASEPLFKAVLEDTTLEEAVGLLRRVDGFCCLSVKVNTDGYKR
Sequence of TJP1_1, Q07157 (Q07157 18-120): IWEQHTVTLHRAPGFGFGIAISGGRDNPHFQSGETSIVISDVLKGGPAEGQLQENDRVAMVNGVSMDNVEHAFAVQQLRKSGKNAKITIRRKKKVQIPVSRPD
Sequence of PARD3B_2, Q8TEW8 (Q8TEW8 376-471): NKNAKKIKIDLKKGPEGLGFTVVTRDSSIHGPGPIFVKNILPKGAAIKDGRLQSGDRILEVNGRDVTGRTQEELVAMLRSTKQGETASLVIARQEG
Sequence of LIMK1, P53667 (P53667 155-268): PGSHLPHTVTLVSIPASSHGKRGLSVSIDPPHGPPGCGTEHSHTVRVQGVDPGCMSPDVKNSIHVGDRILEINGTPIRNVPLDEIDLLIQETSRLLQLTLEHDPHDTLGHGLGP

| Binder | pKd [1] | pKd [4] | pKd [5] | pKd [6] | pKd [7] | pKd [8] | pKd [9] | pKd [10] | pKd [11] | pKd [12] | pKd [13] | pKd [14] | pKd [15] | pKd [16] | pKd [17] | pKd [18] | pKd [19] | pKd [20] | pKd [21] | pKd [22] | also measured |
| --- | --- | --- | --- | --- | --- | --- | --- | --- | --- | --- | --- | --- | --- | --- | --- | --- | --- | --- | --- | --- | --- |
| RHTTSTETAV [HPV30-E6, P36809] | below the threshold | below the threshold | below the threshold | below the threshold | below the threshold | below the threshold | below the threshold | below the threshold | below the threshold | below the threshold | below the threshold | below the threshold | below the threshold | below the threshold | below the threshold | below the threshold | below the threshold | below the threshold | below the threshold | below the threshold | pKd [2]: below the threshold; pKd [3]: below the threshold; pKd [23]: below the threshold; pKd [24]: below the threshold; pKd [25]: below the threshold; pKd [26]: below the threshold |
| RPLPRKVSQL [DOCK4, Q8N1I0] | below the threshold | below the threshold | below the threshold | 4.12 | below the threshold | below the threshold | below the threshold | below the threshold | below the threshold | 4.21 | below the threshold | below the threshold | below the threshold | 4.33 | below the threshold | below the threshold | below the threshold | below the threshold | below the threshold | below the threshold | pKd [2]: below the threshold; pKd [23]: below the threshold; pKd [24]: below the threshold; pKd [25]: below the threshold; pKd [26]: below the threshold |
| QRQARSETLV [HPV59-E6, Q81964] | below the threshold | 4.61 | below the threshold | below the threshold | 4.33 | below the threshold | below the threshold | below the threshold | below the threshold | 4.28 | below the threshold | below the threshold | below the threshold | below the threshold | below the threshold | below the threshold | below the threshold | below the threshold | below the threshold | below the threshold | pKd [2]: below the threshold; pKd [3]: below the threshold; pKd [23]: below the threshold; pKd [24]: 4.47; pKd [25]: below the threshold; pKd [26]: below the threshold |
| SSLQSLETSV [ATP2B4, P23634] | below the threshold | below the threshold | below the threshold | below the threshold | below the threshold | below the threshold | below the threshold | below the threshold | below the threshold | below the threshold | below the threshold | below the threshold | below the threshold | below the threshold | below the threshold | below the threshold | below the threshold | below the threshold | below the threshold | below the threshold | pKd [3]: below the threshold; pKd [23]: below the threshold; pKd [24]: below the threshold; pKd [25]: below the threshold; pKd [26]: below the threshold |
